Measurements as given in PMC9821441, “Quick and Spontaneous Transformation between [3Fe–4S] and [4Fe–4S] Iron–Sulfur Clusters in the tRNA-Thiolation Enzyme TtuA” (International Journal of Molecular Sciences, 2023).

Biological target: T1, [4Fe–4S]-TtuA (tRNA-thiolation enzyme TtuA from Thermus thermophilus HB27, reconstituted with a [4Fe–4S] … (Thermus thermophilus (HB27 strain), UniProt Q72LF3 1-321)
T1 construct: TtuA, tRNA-thiolation enzyme, Thermus thermophilus HB27; Carries a [4Fe–4S] cluster with the unique (non-cysteine-chelated) Fe; same polypeptide as m2, only the cofactor differs; also called TthTtuA; reconstituted TtuA; source: [4Fe–4S] reconstituted with DTT, FeCl3 and Na2S
T1 sequence (looked up): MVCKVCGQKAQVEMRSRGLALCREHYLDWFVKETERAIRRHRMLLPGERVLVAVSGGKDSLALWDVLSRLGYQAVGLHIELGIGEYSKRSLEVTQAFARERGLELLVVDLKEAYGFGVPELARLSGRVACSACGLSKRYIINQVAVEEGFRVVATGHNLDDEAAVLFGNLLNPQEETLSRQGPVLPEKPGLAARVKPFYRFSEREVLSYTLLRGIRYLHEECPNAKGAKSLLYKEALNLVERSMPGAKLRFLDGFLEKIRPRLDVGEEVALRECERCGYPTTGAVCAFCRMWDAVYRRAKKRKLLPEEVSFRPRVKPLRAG
Test: EPR spectroscopy; TtuA mixed with TtuB–COSH to a final concentration of 0.5 mM, 25 °C for 5 min, strictly anaerobic; then 5-fold molar excess dithionite, 25 °C for 10 min, frozen; CW X-band EPR (~9.59 GHz) at 12 K for [4Fe–4S]1+ and 40 K for [3Fe–4S]1+; reads the Fe–S cluster only
Conditions: both partners purified

binding result: binds
B1: TtuB–COSH (sulfur donor protein TtuB from Thermus thermophilus HB27 with a C-terminal thiocarboxylate) (natural protein, Thermus thermophilus (HB27 strain), UniProt Q72LF4 1-65, looked up)
chain: MRVVLRLPERKEVEVKGNRPLREVLEELGLNPETVVAVRGEELLTLEDEVREEDTLEVLSAISGG
modifications: not fully specified (C-terminus)
notes: TtuB, sulfur donor (sulfur carrier) protein, Thermus thermophilus HB27; source: E. coli B834 (DE3), pTYB1, purified on chitin resin; intein cleaved with 50 mM ammonium sulfide; not shown: intein, C-terminal, cleaved
